Reference: US20240358834A1 (University of Pennsylvania, published 2024)

T1: human CD19 protein with a biotinylated AviTag (Acrobiosystems) (human, UniProt P15391 20-291, biotinylated AviTag)
T1 construct: Captured on streptavidin-coated microplate wells; also called biotinylated-AviTag-CD19; hCD19; not shown: AviTag
T1 sequence (looked up): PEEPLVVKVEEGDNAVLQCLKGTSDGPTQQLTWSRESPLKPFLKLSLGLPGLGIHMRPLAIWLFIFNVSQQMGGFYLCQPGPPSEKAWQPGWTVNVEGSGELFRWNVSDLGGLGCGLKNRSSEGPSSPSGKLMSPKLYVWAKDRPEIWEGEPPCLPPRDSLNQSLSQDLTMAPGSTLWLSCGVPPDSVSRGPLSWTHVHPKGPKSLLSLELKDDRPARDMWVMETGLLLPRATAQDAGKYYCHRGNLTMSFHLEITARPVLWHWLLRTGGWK

B1: scFv 26 (scFv)
scFv: SSVLTQPPSVSVSLGQTATISCSGESLSKYYTQWFQQKAGQAPILVIYKDTERPSGIPDRFSGSSSGNTHTLTISGARAEDEADYYCESLVDSDAYMFGSGTQLTVLGGGSSRSSSSGGGGSGGGGEVQLVETGGDLVKPGGSLRLSCVGSGFTFSSYWMSWVRQAPGKGLQWIADISDSGSSTDYADAVKGRFTISRDNAKNTLYLQMNSLRAEDTAMYYCARGLGMDYWGHGTSLFVSSASTTAPSVTSGQAGQHHHHHHGAYPYDVPDYAS
notes: Canine scFv (VL-linker-VH); also called P3-03
B2: scFv 32 (scFv)
scFv: QSVLTQPASVSVSLGQTATISCSGESLSKYYAQWFQQKAGQAPVLVIYKDTERPSGIPDRFSGSSSGNTHTLTITGIQAADEADYYCQSYDDNLDGYVFGSGTQLTVLGGGSSRSSSSGGGGSGGGGEVQLVESGGDLVKPGGSLRLSCVGSGFTFSSYWMSWVRQAPGKGLQWIADISDSGSSTDYADAVKGRFTISRDNAKNTLYLQMNSLRAEDTAMYYCARGLGMDYWGHGTSLFVSSASTTAPSVTSGQAGQHHHHHHGAYPYDVPDYAS
notes: Canine scFv (VL-linker-VH); also called P4-11
B3: scFv 27 (scFv)
scFv: QPVLTQPPSVSVSLGQTATISCSGESLSKYYAQWFQQKAGQAPVLVIYKDTERPSGIPDRFSGSSSGNTHTLTITGIQAEDEGDYHCHSYDENLDGYVFGSGTQLTVLGGGSSRSSSSGGGGSGGGGEVQLVESGGDLVKPGGSLRLSCVGSGFTFSSYWMSWVRQAPGKGLQWIADISDSGSSTDYADAVKGRFTISRDNAKNTLYLQMNSLRAEDTAMYYCARGLGMDYWGHGTSLFVSSASTTAPSVTSGQAGQHHHHHHGAYPYDVPDYAS
notes: Canine scFv (VL-linker-VH); also called P3-18
B4: scFv 30 (scFv)
scFv: QSVLTQPASVSVSLGQTATISCSGESLSKYYTQWFQQKAGQAPVLVIYKDTERPSGIPDRFSGSSSGNTHTLTISGAQAEDEADYYCQSYDDNVDGYVFGSGTQLTVLGGGSSRSSSSGGGGSGGGGEVQLVESGGDLVKPGGSLRLSCVGSGFTFSSYWMSWVRQAPGKGLQWIADISDSGSSTDYADAVKGRFTISRDNAKNTLYLQMNSLRAEDTAMYYCARGLGMDYWGHGTSLFVSSASTTAPSVTSGQAGQHHHHHHGAYPYDVPDYAS
notes: Canine scFv (VL-linker-VH); also called P4-02
B5: scFv 28 (scFv)
scFv: QSALTQPSSVSVSLGQTATISCSGESLNKYYVQWFQQKAGQVPILVIYRDTERPSGIPDRFSGSSSGNTHTLTITGTRAEDEADYYCESLVNDNTYVFGSGTQLTVLGGGSSRSSSSGGGGSGGGGEVQLVETGGDLVKPGGSLRLSCVGSGFTFSSYWMSWVRQAPGKGLQWIADISDSGSSTDYADAVKGRFTISRDNAKNTLYLQMNSLRAEDTAMYYCARGLGMDYWGHGTSLFVSSASTTAPSVTSGQAGQHHHHHHGAYPYDVPDYAS
notes: Canine scFv (VL-linker-VH); also called P3-30
B6: scFv 29 (scFv)
scFv: QSVLNQPPSVSVSLGQTATISCSGESLNKYYTQWFQQKAGQAPVLVIYKDTERPSGIPDRFSGSSSGNTHTLTISGARAEDEADYYCESVDSTDTYVFGSGTQLTILGGGSSRSSSSGGGGSGGGGEVHLVESGGDLVKPGGSLRLSCVGSGFTFSSYWMSWVRQAPGKGLQWIADISDSGSSTDYADAVKGRFTISRDNAKNTLYLQMNSLRAEDTAMYYCARGLGMDYWGHGTSLFVSSASTTAPSVTSGQAGQHHHHHHGAYPYDVPDYAS
notes: Canine scFv (VL-linker-VH); also called P3-51
B7: scFv 3 (scFv)
scFv: QSVLNQPPSVSGALGQTVTISCSGSHTNIGSGFDVQWYQQLPGKSPQTLVYANINRPSGVPARFSGSKSGSTATLTITGVQAEDEADYYCQSYDDNFDGHVFGSGTQLTVLGGGSSRSSSSGGGGSGGGGEVQLVQSGGDLVKPGGSLRLSCVASGFTFSNYTMSWVRQAPGQGLQWVAYINYDGSITYYAEAVKGRFTVSRDNAKNTLYLQMNSLRAEDTAVYFCVKETFMIPTEWGQGTLITVSSASTTAPSVTSGQAGQHHHHHHGAYPYDVPDYAS
notes: Canine scFv (VL-linker-VH); also called scFv_03; P3-05
B8: scFv 31 (scFv)
scFv: QSALTQPSSVSVSLGQTATISCSGESLTKYYVQWFQQKAGQAPVLVIYRDTERPSGIPDRFSGSSSGNTHTLTISGARAEDEADYYCESMDGREAYVFGSGTQLTVLGGGSSRSSSSGGGGSGGGGEVQLVESGGDLVKPGGSLRLSCVASGFTFSSYWMSWVRQAPGKGLQWIADISDSGSSTDYADAVKGRFTISRDNAKNTLYLQMNSLRAEDTAMYYCARGLGMDYWGHGTSLFVSSASTTAPSVTSGQAGQHHHHHHGAYPYDVPDYAS
notes: Canine scFv (VL-linker-VH); also called P4-09
B9: scFv 33 (scFv)
scFv: DIVMTQTPLSLSVSPGEPASISCKASQSLLHSDGNTYLHWYLQKPGQSPQLLIYSVSNRFTGVSDRFSGSGSGTDFTLRISRVEADDTGVYYCGQGTHLPFTFGQGTKLEIKGGSSRSSSSGGGGSGGGGEVQLVESGGDLVKPGGSLRLSCAASGFTFSHYDMNWVRQAPGKGLQWVASIAYDGSNTYYTDAVKGRFTISRDNAKNILFLLVNSLRAEDTAIYYCARGLVYWGQGTLVTVSSASTTAPSVTSGQAGQHHHHHHGAYPYDVPDYAS
notes: Canine scFv (VL-linker-VH); also called P3-07
B10: scFv 6 (scFv)
scFv: QPVLTQPPSVSGSLGQRVTISCTGTNTNIGSGYSVQWYQQLPGESPKPIIYGSSNRPSGVPARFSGSKSGSTGTLTITGIQAEDEADYHCQSYDDSLDGHAVFGGGTQLTILGGGSSRSSSSGGGGSGGGGEVQLVQSGGDLVKPGGSLRLSCVASGFTFSDNYMSWIRQVPGKGLQWVSRISTDGRGTSYADAVKGRFTISRDNAKNTLYLQMNSLRDEDTAVYYCARRSGIWGFDYWGQGALVTVSSESPSPPNLTSGQAGQHHHHHHGAYPYDVPDYAS
notes: Canine scFv (VL-linker-VH); also called scFv_06; P3-28
B11: scFv 34 (scFv)
scFv: SYELTQPPSVSAALGQRVTISCTGTNTNIGSGYSVQWYQQLPGESPKPIIYGSSNRPSGVPARFSGSKSGSTGTLTITGIQAEDEADYHCQSYDDSLDGHAVFGGGTQLTILGGGSSRSSSSGGGGSGGGGEVQLVESGGDLVKPGGSLRLSCVASGLTFSDNYMSWIRQVPGKGLQWVSRISTDGRGTSYADAVKGRFTISRDNAKNTLYLQMNSLRDEDTAVYYCARRSGIWGFDYWGQGTLVTVSSESPSPPNLTSGQAGQHHHHHHGAYPYDVPDYAS
notes: Canine scFv (VL-linker-VH); also called P3-44
B12: scFv 35 (scFv)
scFv: SSVLTQPPSVSVSLGQTATISCSGESLSEYYAQWFQQKAGQAPVLVIYKDTERASGIPDRFSGSSSGNTHTLTISGARAEDEADYYCESAVNSDGIVFGGGTHLTVLGGGSSRSSSSGGGGSGGGGEVQLVESGGDLVKPAGSLRLSCVTSGFTFSSYAMSWVRQAPGKGLQWVGSINSGGSTTSYADAVKGRFTISRDNAKNTVYLQMNSLRAEDTAVYYCARWWDFEYWGQGTLVTVSSESPSPPNLTSGQAGQHHHHHHGAYPYDVPDYAS
notes: Canine scFv (VL-linker-VH); also called P4-08
B13: scFv 36 (scFv)
scFv: QSVLTQPTSVSGSLGQRVTISCSGSTNNIGIVGASWYQQLPGKAPKLLVYSDGDRPSGVPDRFSGSNSGNSDTLTITGLQAEDEADYYCQSFDTTLDAYVFGSGTQLTVLGGGSSRSSSSGGGGSGGGGEEQLVEFGGGLVRPGGSLRLSCVASGFTFSSYGMTWVRQSPGKGLQWVATISDTGSTYYADTVKGRFSISRDNAKNTLYLQMNSLRADDTALYYCTKDLGVWGMDNWGPGTSLFVSSASTTAPSVTSGQAGQHHHHHHGAYPYDVPDYAS
notes: Canine scFv (VL-linker-VH); also called P3-25
B14: scFv 37 (scFv)
scFv: SSVLTQPPSVSVSLGQTATISCSGESLNDYYAQWFQQKAGQVPVLVIYRDTERPSGIPDRFSGSSSGNTHTLTISGARAEDEADYYCESEVSAGGAVFGEGTHLTVLGGGSSRSSSSGGGGSGGGGEVQLVETGGDLVKPGGSLRLSCVASGFTLRDYSMTWVRQTPEKGLQLVAGISTGGSTTYYIDAVKGRFTISRDNAKNTVYLQMNSLRAEDTAMYHCTTTALGYWGQGTLVTVSSASTTTPSVTSGQAGQHHHHHHGAYPYDVPDYAS
notes: Canine scFv (VL-linker-VH); also called P3-27
B15: scFv 38 (scFv)
scFv: SSVLTQPPSVSVSLGQTATISCSGESLSEYYAQWFQQKAGQAPVLVIYKDTERPSGIPDRFSGSSSGNTHTLTISGARAEDEADYYCASADSSAIPVFGGGTHLTVLGGGSSRSSSSGGGGSGGGGEVQLVESGGDLVKPGGSLRLSCVASGFNFGNYAVSWVRQAPGKGLQWVAGISNDGTITGYTDVVEGRFIISRDNAKNTLYLQMNSLRAEDMAIYYCVAGGFLDYWGQGTLVTVSSASTTAPSVTSGQAGQHHHHHHGAYPYDVPDYAS
notes: Canine scFv (VL-linker-VH); also called P3-17
B16: scFv 39 (scFv)
scFv: QSVLTQPPSVSGSPGQRVTISCSGTTKNIGIVGASWYQQLPGKAPKLLVHSDGFRPSGVPDRFSASNSGDSDILTITGLQAEDEADYYCQSFDTTLDAHVFGSGTQLTVLGGGSSRSSSSGGGGSGGGGEVPLVESGGDLVKPGGSLRLSCVASGFTFSSYGMSWVRQSPGKGLQWVAGITYDGSNTYYTDTVRGRFTISRDNARNTVYLQMNSLRAEDTAVYYCVASPLYGTYGFDYWGHGTSVFVSSASTTAPSVTSGQAGQHHHHHHGAYPYDVPDYAS
notes: Canine scFv (VL-linker-VH); also called P3-29
B17: scFv 4 (scFv)
scFv: QSVLNQPPSVSGALGQTVTISCSGSHTNIGSGFDVQWYQQLPGKSPQTIIYANINRPSGVPARFSGSKSGSTATLTITGVQAEDEADYYCQSYDDNFDYVFGSGTQLTVLGGGSSRSSSSGGGGSGGGGEEQLVEFGGDLVKPGGSLRLSCVVSGFDFSRYGMSWVRQSPGKGLQWVADISYRGTTFYADDVKGRFTVSRDSAKNTLYLEMTSLTVEDTAVYYCANSANWYVSPFDHWGQGTLVTVSSASTTAPSVTSGQAGQHHHHHHGAYPYDVPDYAS
notes: Canine scFv (VL-linker-VH); also called scFv_04; P3-06

Biological target: T1, human CD19 protein with a biotinylated …
Assay: phage ELISA, biotinylated AviTag CD19 on streptavidin wells; signal ratio to FMC63 standard
Description: To identify unique human CD19-binding monoclonal scFv from the panned libraries, individual phage antibody clones were expanded, assessed for binding to CD19 by ELISA, and subjected to nucleotide sequencing to identify those clones that were unique. A total of 84 scFvs were randomly selected from the panned libraries (70 from P3 and 14 from P4).

| Binder | ELISA hCD19 (ratio FMC63) |
| --- | --- |
| B1 | 0.65 ratio to FMC63 |
| B2 | 0.2 ratio to FMC63 |
| B3 | 0.35 ratio to FMC63 |
| B4 | 0.22 ratio to FMC63 |
| B5 | 0.33 ratio to FMC63 |
| B6 | 0.83 ratio to FMC63 |
| B7 | 0.32 ratio to FMC63 |
| B8 | 0.35 ratio to FMC63 |
| B9 | 0.43 ratio to FMC63 |
| B10 | 0.47 ratio to FMC63 |
| B11 | 0.73 ratio to FMC63 |
| B12 | 0.23 ratio to FMC63 |
| B13 | 0.6 ratio to FMC63 |
| B14 | 0.1 ratio to FMC63 |
| B15 | 0.64 ratio to FMC63 |
| B16 | 0.19 ratio to FMC63 |
| B17 | 0.77 ratio to FMC63 |
